Results taken from US20230226096A1 (Orna Therapeutics, Inc., priority 2020, published 2023).

B1: Hubei sobemo-like virus 3 (nucleic acid)
DNA: GAGATGTTTGCGTGGGCCGTTGCGCTGCGGGCGGCCCACCTCCCTACGGGGACCGTGAGACACCGCTGGGGAAGGCCCCCACCCCCGGCCAAGGGGATCCTGCCGAGAGGCAGGAGAAAGAGGCCCAGCCCTCTGGGGCGCCTTTAGGGGTGCCTGGGAGGGAAGTACCCGAGCCGGGCGGCCGGTCGGGTGCGGCTGTGCAGTTCGAGGCTAACCGTAAGGAAGGCCTGAGCTGCCTCGGCTTGTCGGAAAGGAAGACGAAGGCACTTATCAAGGCTTTCAGGAAGCAGGAGCGCAATTACAGCGCGCGCCGTGCGGCCTGGATTAACCGCATTTGGCCG
B2: Hubei picorna-like virus 2 (nucleic acid)
DNA: AGCAACTTCTTTCTGAAAACTAGCTAGAGTTCGACGATCTCTCTGGCTAATGACAAATAACCAATCAAAAAGTCAAATGTTCATGTATATATATATTTAGTAGTGACCTTTATTTAGAAAAACTTTAGATGATTTATCGTCAAGTTGCCCTTTGTGAAGCGATCAGCTTTTTATATCGTTTCATTTTTGTATACGTCTTAATTGACGTTGTAAGTACGTTTTGCATACCTCACATTGAGGATAGTATCGTTTCCTGACTAAGAAGTTAAACTAGTCTACCAATAGCAACCATATAGGATATAGCTTTGTTTTTAACAAGGTTTAATCTGATCTTATGCTCTTGCTTACGGTGTTTTATGTATAGAAAAGTTTTTATAAAAACTACATAATTGTCAAAAGAAAAAGCGTTACGTACTGACGCATTTATGTTCACAGTGTGACACAAACCTTCTATATTTTGATTGTAAAATAGGCTTTGCCTGACCATTTATCAAATACAAACTGTTTCAAACGCCTCTCCGAGCCATATTGGCCGACGCGAATCGACATAACAGGGTGAGTTTACAGCTGCAGTTGCAGCCGAGGATCCACTTATTTGAGAGAGAATTACTCTTAACGAAATTTTGAAGTCACTTCTACACAGTTAAGTCTGAGTAGGCGTTATCCAAACGTAAA
B3: Hepacivirus P (nucleic acid, listed as Hepacivirus sp.)
DNA: ACATGGGGGGGGGCTGACAGTGAGTACACTGTGCCAAGCAGGTGCTACGCTATGCCTAGGTGCTGCTGTAGGCCAAGGACATGTCCCAGTCATCCCAGGTGAGGGGGGGGGTTCCCCTCACCGCTGCCACTGCCTGATAGGGTCCTGCCGGAGGGTCTCGGTGTCCGGCTGTAC
B4: Harrier picornavirus 1 (nucleic acid)
DNA: GATGTGTGACGGTGTAATTACTTTCCGGATCCCACTTTCCTATTATAACTCTTTCATCCCAAGGTTAGGGAAAGAACCTGGCTCGGTACCACCAGACCCTCCGCCACGCTAGTGGACTCTCCGGAGATAACGGTACCCCCTTTGTAGTCACCTGTGCTGGTGAAGAACCACCTAGTATTGCTTGGGTGCGTGCCGCCTAGCTTCCATTTCTTCTGGAGCACTGTGCAATGAGGTTTCCCCACTTGGTAACAAGTGCCTCAGGTCCCGCAAGGATACTGTGGGGTGGTGTGACCGCAGGGAGCTGTCTCCACGGCTCCTCTAATGTTACGCCGCTATCCACAGGCCAGTGCGTGTCATCGATCCCGGATGACAGAGCTAGTATTGCGAACCCCCAAGTAAGAAAAGTGGCTAGTAACCTGATAGCTGGTGAAGAGGGTGGGTCAGTTGAGTAGATGCCCTAGAGGTACCCGAAAGGATCTGACTAGGGACCCGTGACTATACATTAGGTAAACCGGGTATAAAAACCATGAAAAACTGACCACTTTTCTTTTAACCTCTTCTTTCTTTTTATGTGTGTTAAGTGTTTTGAGTTTGGACTGTACCTTGCCCGCCTTTCTTGGATTTTCTCTATCGCTCTTCTTACACCTACTGTTATCAAGGCACTCTTTAGAGATA
B5: Kunsagivirus 1 (nucleic acid, listed as Kunsagivirus sp.)
DNA: TTTCAAATCGGACTCCGGTAGTTATACCGGAGCCCGGTTTGGACGCTTGGGCCGCGTTAACAGCCCCCCACCCCTTTCCCACTGACTGATTTCTCGGATTGGACTCATTTGCATTGCTAACTCTGATTCTGGATTTCCCCGTTTATGTCGTCGCGGTCGGAAGTGCACGTACTTCGACGTTGATCTGATGGCGTTTGTTTCCAGGGGGGAGGTGGCGGCAGAAACGCCCCCGCCGTAAACTTCGGCGGGCCACGCCTGTCAAGCCACTCCCTGGGGCCGAGCGCCTGAGGTGATACAGAGAGATAAGCACACTGGGCGCTGACAACGCCCGGGACCTCAGTGAGAAGAGCAGTAGGGCCGTGTTTATGGGACTCCATTGGATATCCCCCGCTTGTCGGAACTCACGGCTACTCCGGGTTGGGAAGCCCGCGACTGGTACTGTACTGGGTGATAGCCTGGTGCCTTCCCTCTCACTGTTGTATGAAGGCTGAAAACCCCCT
B6: Kagoshima-2-24-KoV (nucleic acid, listed as Kobuvirus sp.)
DNA: TATAGTTTGCCTGTTTCTCGCACCGTTACCGCTCGTTCGGGAATGTGAAACTGGCACCCCTCCTCTCCCCTACCACCCTTTCTCCTTCGCCCCCATTCATAATTTACAACGCCGCACACAGCGGCGGCCGCCAAGGGCTAGCCTGGCGGTTATAAAAGGAACCTGGGTCTTTCCCTCTTCAAGCCAAAAGGTAGGTTCCCTGTGTCCCTGAATGCTCGGTGAGGAATGCTGCACCGTAACGCTTTGTGAAGTGTTTGCAAGTTCTGGCCCGGCAAGCCTACAGAGTGCTGTGATCCGCTGCGGACGCCATCCTGGTAACAGGACCCCCAGTGTGCGCAACAGTATGTTCAGACTTCGGTTTGTTCACTTGCTTTCATGGACCATTGCGCGAAAGTGCGTGCGCCATATCCCTGTACTTCAGGTGTGCTTCTCTGGACCCTAGGAATGCTGCGAAGGTACCCCGTTTCGGCGGGATCTGATCGCAGGCTAATTGTCTATGGGTTCAGTTTCCTTTTTCTTTACTCCACAATTGACTGCTTAACTGACTCTGGATCTTGTGCTTCCACTGCTCTTTCTGCTCTCAAAACGGCTTCACTTACCAACTCTCACCTTTCGACCAACACCATTTACACACTAACTTTTTTCGACTCTTCTGACTCCTGGCTTGGTGAAGAC
B7: Megirivirus C (nucleic acid)
DNA: TTCCCGACCGGTCTGGCAAACCGGACGGTTATCCTGGTTAGATGTCTGATGGTTGCTGGAACGTGGTGGCTACTGCTGCCACCTTCTGGCTTCCTTTAATGGGCATCTAGCTGGGTTCTTTGCCACAATCCATCTTACTCTCTTACCCATTTTCTATTACCCAGACTTGTTGTTAACTGGTAAAGTTGACCTACTGGCTTCGTTTTGAGACTATTCTGGTGTTGGTGGACACTCTTTCCACAAGTAGATTGTATGGAGTTCATGCTCGTTTTGAACCGGGAATGGCACAACCCGTAGTAGGATCTTGCCTCTGCCATACTAATCTGCGCCTGTTGCTTTTAGACTATGGGCTGCTAAGGATGACATTGGAACCCCTTTTTGGATATTCCATGTCAAGTCAACTGTTTCATCTGGTGTACGCTGGAAATCCTTGTTCCGAGGTCTTGTCTGGAGGTGGTGCTGAAATATTGCAAGCCACAGGCAGTTCCTTGGACTTGGTGCCGCTATCAGATGCTACACCCTCTATGGGCAAATGTTGAACCTTAGTGGACGCGTGAGATGGGAATCCACGCCGGCCATAGACTGGCTGATAAGCTCGCGGCTGATCGAGTTGCAACAGTAATCAGTTGATTTGCCACT
B8: Jingmen picorna-like virus (nucleic acid)
DNA: TGTGTTTTTGTCAAGATAATTGTTCTGTGATTAACAGTGATTGTGGTTCGTGTAATGCGACGCAGTCAAATGCTAGTTTTGATGAAGTGTATGAGAGAGTGGAAAACTTATCTCATAAGAAGATTGAAGAGTGTGTAGATCAGGCTATTGATCGAGCTTCTAAGCTTCGTGATTACAAGCTTAATGTTCACAATGGCTCCCGACGGGAATCATCTGATCCTCTCTTTATTTCGCCCCATTCGTTGTTATCGCTTGGGGTATCTAAGTTTGTTGCGTTTGAGCAGCATCACAGTTTCGCTTCAGTTGAGTCTCTGAAGTTGCTTGCTCTGTCT
B9: Mumps virus (nucleic acid, listed as Mumps orthorubulavirus)
DNA: ACCAAGGGGAAAATGAAGATGGGATGTTGGTAGAACAAATAGTGTAAGAAACAGTAAGCCCGGAAGTGGTGTTTTGCGATTTCGAGGCCGGGCTCGATCCTCACCTTTCATTGTCGATAGGGGACATTTTGACACTACCTGGAAA
B10: Mouse Mosavirus (nucleic acid, listed as Mosavirus sp.)
DNA: GAAGTTGATCATGAACTTGGTTATTGGTGGAACGCACATGAACTCCCAACAATGATCTTGAAGACACAGCGTGGTAACAATTACCATGCCCTTGTGGCTGCCCAAGACATTGATGGCTATTGGGTGATTTATGATGAC
B11: Miniopterus schreibersii picornavirus 1 (nucleic acid)
DNA: GTTGTCGACCCGTTGCTTGGTTTAAGCATGAGGTGGATTCCCCCGATTATGTCTACCCGTTACTATGGCGGGCGGTCGTTTCAGGGTGTTTCTACTGAGGACTGCACCAAGTCTTTATCTTTTATTCTCAGATCTCCGGCTGTTTGACGCTTGTAGGACAGCAGGACTATTTTCTCTTAATCTTTTTCTACCCACTAGGGTCCTATCCTAGTGGAGGGAGGGTGCCACCCCTTCTCTCTTTAGAGAGTGCGCCTGGCGGTCTTTCCGTCTCTGGAAAAAGGAGCACATGGCATGCTACAATTGGCACAAGAAAACAAGCTTTGCGGATTCTTTCTTTGTACTAGAGGAAGCTGTAGCGACCCTGTATGGCGAGCGGACTCCCCTCTCGGCGACGAGAGCCTCTCGGGCCAAAAGCCAAGTGTTAATAGCACCCATACAGGCGGCAGTACCCCACTGCCCTTTCTCAACATACAATGACTGATGAACCACTGTTGGTTTTTCTGACACCTTTGTAGTAGGATTCCAAGGAATGTCCTGAAGGTACCCTGTTAGCTTACGCGCAGGATCTGATCAGGAGTCTCTTTACAGTGCTGTACACTGTGCAAGGGATTAAAAATTGTTTGAGGAATCCCCGAGATAGTGGTCTATCTCTTCCTATTTTGTTTTACAGACACG
B12: Linda virus (nucleic acid)
DNA: GTATAGCAGCAGTAGCTCAAGGCTGCTATACGATTGGACATACCAAATTCCAATTGGTGTTAGGGACCACCTAGGTGAAGGCCGACGACAGGTAGCCATTCCTGTTAGTAGGACGAACCGTTATGGTGGACTGGTTGCTCAGGTGAGCAGGCTGCAATGCGTAAGTGGTGAGTACACCACAGCCGTCAAAGGTGCCACTGGTAAGGATCACCCACTGGCGATGCCTTGTGGACGGGGGCGTGCCCAACGCAATGTTAGCGGTGGCGGGGGCTGCCATCGTGAAAGCTAGGTCTTGATGGACCTTGTTGCCTGTACAGTCTGATAGGATGCCGGCGGATGCCCTGTGACAGCCAGTATAAAGAATATCCGTTGTGATTGCAC

Test system: HEK293 cells
Assay type: cell-based, human
Settings: luminescence from secreted Gluc in supernatant 24 hours after transfection of HEK293 cells; circular RNA encoding Gluc with the named IRES (UTR truncated to 675 nt)

Molecule | Expression
B1 | 1.17E+05
B2 | 1.95E+05
B3 | 6.04E+05
B4 | 1.47E+05
B5 | 4.15E+05
B6 | 9.30E+07
B7 | 1.24E+05
B8 | 9.32E+04
B9 | 1.47E+05
B10 | 9.00E+04
B11 | 6.05E+06
B12 | 7.37E+05
